{
  "source": "the DeepSol protein solubility set",
  "data": [
    {"assay": "soluble on expression in E. coli; label from the status in PepcDB or PDB records", "values": [
      {"sequence": "MSLKQGLQLRLSQQLAMTPQLQQAIRLLQLSTLELQQELQQALESNPLLEQIDTHEEIDTRETQDSETLDTADALEQKEMPEELPLDASWDTIYTAGTPSGTSGDYIDDELPVYQGETTQTLQDYLMWQVELTPFSDTDRAIATSIVDAVDETGYLTVPLEDILESIGDEEIDIDEVEAVLKRIQRFDPVGVAAKDLRDCLLIQLSQFDKTTPWLEEARLIISDHLDLLANHDFRTLMRVTRLKEDVLKEAVNLIQSLDPRPGQSIQTGEPEYVIPDVLVRKHNGHWTVELNSDSIPRLQINQHYASMCNNARNDGDSQFIRSNLQDAKWLIKSLESRNDTLLRVSRCIVEQQQAFFEQGEEYMKPMVLADIAQAVEMHESTISRVTTQKYLHSPRGIFELKYFFSSHVNTEGGGEASSTAIRALVKKLIAAENPAKPLSDSKLTSLLSEQGIMVARRTVAKYRESLSIPPSNQRKQLVEGHHHHHH", "soluble on expression in E. coli": "soluble"},
      {"sequence": "MSLSIAISNAIIVTQNDNRDVYRGNVKIDGNKIQYVGKDEVDGDILIDGTNKVLMPGLINTHAHVGMSASKGLFDDVDLDSFLKKTFEYDSDRTSTGIFNSAKLGMYEMIGNGITAFVDLYYSEDIIAKAAEEIGIRAFLSWVTLDKELTTQIGDPVENAENFIRNHVGNKYVVPSVGVQGIYVANDDTFRRAMDLAEKYGTILHMHLSETRKEVYDAVKKLGERPIEHLHNIGILNKRVLAAHCVWATYHEVRLLSKDGVNVSWNSISNFKLGTGGIPPIPEMMRENVNVTIGTDSNGSNNSLDMFQAMKFSAISVKNYRWDASLMKAQEILDMATRNAARALQLNAGSIEVGKLADVVLLDATIPSMIPTNEANAVSNIVYSSSPQNVDTVIIDGEIKKINGKILGFHSNKFTNSEFKEGHHHHHH", "soluble on expression in E. coli": "not soluble"},
      {"sequence": "NYGMVPFAGIPYYACPFGRDSIITSWFLLPYYPQYAEGTLKFFAKIQGKKFNPLNEEEPGKIPHEFRFGELSHSRKMPFAPYYGTVDATPLYVILAAEYLRWTGDRELIERLKPNLTAAVEWILRRLDEGGGYIRYKGGLLANQGWKDSKEGIPTEEGTPTKPPVALVEVQGYAYKALMDAASLGLTSLDPKMLKKEAEELKKRFNKDFWCDGFYALALDGDNVPSKVVSSNMGHLLFTGIAEHQEKIAERLFEEDMFSGWGIRTLSSKEKAYNPFSYHNGSIWPHDNAVIAIGLASIGEKEKARMLAEAIFKTAKFLPNSQLPELFSGLESEYPLLCPRANAPQAWSAASVFALLTALLGLKA", "soluble on expression in E. coli": "not soluble"},
      {"sequence": "MQVISPSSPAPRFAGKERFSEVYGELNDDFGSKLKISSKEEENRDDDSWWNQNGTDKDDEGREEDFSFASVNADNSPITADEAFEDGQIRPVYPLFNRNIFFDDPEEKTLRSPLKKLFVESTTTEEEEEESDTVGPYCSWTNRTVEQASPETCRKSNSTGFSKLWRFRDLVLRSNSDGKDAFVFLSNGSSSTSSTSSTAARLSGVVKSSEKGKEKTKTDKKKDKMRTKSAHEKLYMRNRAMREEGKRRSYLPYKHVGFFTNVNGLTRNVHPY", "soluble on expression in E. coli": "soluble"},
      {"sequence": "MDLLDKVMGEMGSKPGSTAKKPATSASSTPRTNVWGTAKKPSSQQQPPKPLFTTPGSQQGSLGGRIPKREHTDRTGPDPKRKPLGGLSVPDSFNNFGTFRVQMNAWNLDISKMDERISRIMFRATLVHTDGRRFELSLGVSAFSGDVNRQQRRQAQCLLFRAWFKRNPELFKGMTDPAIAAYDAAETIYVGCSFFDVELTEHVCHLTEADFSPQEWKIVSLISRRSGSTFEIRIKTNPPIYTRGPNALTLENRSELTRIIEAITDQCLHNEKFLLYSSGTFPTKGGDIASPDEVTLIKSGFVKTTKIVDRDGVPDAIMTVDTTKSPFYKDTSLLKFFTAKMDQLTNSGGGPRGHNGGRERRDGGGNSRKYDDRRSPRDGEIDYDERTVSHYQRQFQDERISDGMLNTLKQSLKGLDCQPIHLKDSKANRSIMIDEIHTGTADSVTFEQKLPDGEMKLTSITEYYLQRYNYRLKFPHLPLVTSKRAKCYDFYPMELMSILPGQRIKQSHMTVDIQSYMTGKMSSLPDQHIKQSKLVLTEYLKLGDQPANRQMDAFRVSLKSIQPIVTNAHWLSPPDMKFANNQLYSLNPTRGVRFQTNGKFVMPARVKSVTIINYDKEFNRNVDMFAEGLAKHCSEQGMKFDSRPNSWKKVNLGSSDRRGTKVEIEEAIRNGVTIVFGIIAEKRPDMHDILKYFEEKLGQQTIQISSETADKFMRDHGGKQTIDNVIRKLNPKCGGTNFLIDVPESVGHRVVCNNSAEMRAKLYAKTQFIGFEMSHTGARTRFDIQKVMFDGDPTVVGVAYSLKHSAQLGGFSYFQESRLHKLTNLQEKMQICLNAYEQSSSYLPETVVVYRVGSGEGDYPQIVNEVNEMKLAARKKKHGYNPKFLVICTQRNSHIRVFPEHINERGKSMEQNVKSGTCVDVPGASHGYEEFILCCQTPLIGTVKPTKYTIIVNDCRWSKNEIMNVTYHLAFAHQVSYAPPAIPNVSYAAQNLAKRGHNNYKTHTKLVDMNDYSYRIKEKHEEIISSEEVDDILMRDFIETVSNDLNAMTINGRNFWA", "soluble on expression in E. coli": "not soluble"},
      {"sequence": "MGSDKIHHHHHHSDQYSTETFWKTKEHASAGIMGCYNALKLWRSLHTMEFDMLTANAMPYNEANGTQAIGKGEHLSTTALIGSLWKNCYVGIGRTNTFIANVGGVDMDESEKAKMVGEAKFLRAFYYLSLVDKFGGVPLIIDAPNADEQAELPRNSKEEVVNQIVKDLEEAAAVLPDTYASSDLGRATKGAALALKARTLLYNSRWAEAAQAAKQVMESGVYQLFNDYRHFFSEDNKYNCEVIFDIEAKLPEYPTDYDQNIWRLNRPAPLKELVDTYLCVDGKTIEESPLYDPTRPYENRDPRLLKSIVCIGYPYLGKTITKEDVATTGFGVKKYTSYEDDVTIPLVERSAFNFILIRYAEVLLTYAEAQNEASGPDQSVYDAINQLRRRPDINMPEVPKGLTKDQMREVIRRERRIELTFEGLYYSDILRWKTAEKENNGMMHNYEGIEVVKRSFNPKRDYLWPIPYNQTVLNPNLEQNPNWD", "soluble on expression in E. coli": "not soluble"},
      {"sequence": "MGSDKIHHHHHHMNTPFMLHQGTSPVILAFPHTGTEVPPAIWDRLDDNGRIFADTDWHIHTLYAGLLENATTVRATFHRYVIDANRDPAGVSLYPGQNTTGLVPETDFDGKPIWKTGAEPNEADIAHRLETFHAPYHAALAAEIERVKSIHGIAILYDCHSIRSHIPFLFEGKLPDFNIGTDMGKTCDPAIEKIAVEVTAAAQGYDSILNGRFKGGWTTRHYGKPQTGVHAIQMELAQSTHLQNEHPPFAYDTGKAERLRTHLKTILTRMEKFALDTK", "soluble on expression in E. coli": "not soluble"},
      {"sequence": "AQKSVKISDDISITQLSDKVYTYVSLAEIEGWGMVPSNGMIVINNHQAALLDTPINDAQTEMLVNWVTDSLHAKVTTFIPNHWHGDCIGGLGYLQRKGVQSYANQMTIDLAKEKGLPVPEHGFTDSLTVSLDGMPLQCYYLGGGHATDNIVVWLPTENILFGGCMLKDNQATSIGNISDADVTAWPKTLDKVKAKFPSARYVVPGHGDYGGTELIEHTKQIVNQYIESTSKP", "soluble on expression in E. coli": "soluble"},
      {"sequence": "MASDMPLVQLPQRGERINVPLVQSRSEDQRLVTSARQTDKIDADDLVALANQLNSARQLVKGRACDRLKQIADQMEQLHMAARAVLEDAQRDEHLHNVPCNMEKQPGRIYHLYQKQGSMNKYFSMLAPNEWGYQEKKEEYLGSYRLEYDRSWTPVGEMDRKDEEVARLQQLLQREGPVALRGNPNF", "soluble on expression in E. coli": "not soluble"},
      {"sequence": "MEAEEIIGLLKKGDLEKAKDALSKEIDNLSDEELKEILEVAESVAKEKEDIELLKLVVYYYAEFFGIDKLEEFEGIAKEKGYEGLMHLADLYSLLGYPEKALDIYRELLKTDLIKEKEHIGEIYYGIATIHDELQEYDKALEAINEAVKAFKESNNVEKLHQAEVYRAYITFENGDRDKAKEILAGLLPHVTNREIKAQIHLVFKEIFEDEENYEAAIQESLYSLIEGIDTEVFDLAFDGLIDLIWELILEDKFEEIYKSMPMFKVAIPSLKDFFEGVRRIAMYREGKIGREEVSEILMKVKDERLVSILEFLGEAEV", "soluble on expression in E. coli": "soluble"},
      {"sequence": "MRMSSNFRNPCMIRSDVPLSNDQIAHYVPSIFAEEAHDSRSARYLYIPTVQVLDALRAEGFEPFMACQTRVRDQGKREHTKHMLRLRHASQILDQEANEVILLNSHDGSSSYQMIGGKFRFVCANGLVLGDVAADQKVRHSGRGDVVHDVIEGAFEVLKHFEQIDHITADMKHQQLDQDEQEAFALAALAYRYDPAEGPAPVTPSQLLMPRRREDRSSDLWTTFNRVQENTIKGGLTGRNKQGRRTTTRAVNGIDQDVKLNRALWVLAQAMGEHRKAA", "soluble on expression in E. coli": "not soluble"},
      {"sequence": "MYVQGKIGLDQLAEAERLHATLCREVQQRLDIRLRAHRAVLDELNERLADKLFCNFSVFQSIPDAWAIDQIFPVMPLQRLGEEPTRRAVIQDMTCDSDGRINAYIDRQSIENTLRMHAPAPGEPYLIGFFLVGAYQEILGDMHNLFGDTHSVDVELDGAGGYTFTHTRRGDGADDLLRYVHIDPDELERLEHHHHHH", "soluble on expression in E. coli": "not soluble"},
      {"sequence": "MGSDKIHHHHHHMLIIKLSAMGDSLCLFPTVRQLALAFPGATIDWLTSNRSNPALFAELPFIRTIFVTPPSLVRALTYLGGWLFRARRYDLTIDYDQYYCISELIAGMSACSAGFRTSLKGTTFSLSVEYDPLLNEKAMFRKLTERVFATYGVSIPDYRAELPELIERFVPSAQLQTLRARLKAQGKPIVGIYPGSGANATFRRWGVGNYVALIERYKDRYAFVLLGGPDERDLQADLKDIDGVFNLIDSMSFKEVAWFLKHTIDLLVGNDGGLLHVAESQAVATVGIFGPALYRKWGSSLERSIGVEKELPCRPCLKNYLGTVPSACCLGTTACLSAISTDDVAQAMHRAVHRIHVVPIAHA", "soluble on expression in E. coli": "not soluble"},
      {"sequence": "STTEIGWWKLTFLRKKKSTPKVLYEIPDTYAQTEGDAEPPRPDAGGPNSDFNTRLEKIVDKSTKGKHVKVSNSGRFKEKKKVRATLAENPNLFDDHEEGRSSK", "soluble on expression in E. coli": "soluble"},
      {"sequence": "MKIACVVLTYNRLSLLKRCIDSIRNQTYQEFDIYVIDNASTDGTAHWLSLQNDLTVISIHENKGPANGFYTCLQVPYDDGYDWIWMMDDDGVADKGQLEELLNKTVKNNLYFTNALVCNIDNPEKIAFGAKKTIDTQREELIKGNINPFNGTFIHRRVIEKNGNIMREMYMYGCETEYQLRAIKNGFQVATVTSAIHYHPSPKVSICHLIPYIKYCSIIDYPIDTLFYIRNKAYINYTYLGFKRSLFMITSYSLYYLFRLKIRKVLLFWKYYREGCKGVVGNKKQ", "soluble on expression in E. coli": "soluble"},
      {"sequence": "AIAARPPPDPLYILRGSGASVNALHFCCDGDGPPLLYSGSGKGAVHVWNLSTRRAERVLESHAGNSVIWLNTFNNSRSCLISQGRDMRVCVWDLSEGRSAVTDSLHTGSVGFCQCSLLGSRLGSTLLAHPTQHMEEVSVVEMSSWTQVCSLKPDSNLGMLMSMKMWQADSGPVLCAGYEDGSVVLWDVSHRRPFSLLKVHPEPVMSLDVDVCRQKGISGSSENILQSWRLDNQQSLQMHDSIQMTNPGVSQLRIRADGKILASAGWDNNIRVFGWKKLKPLAVLQHHTDMVNSVAFSDHQDPTQRLLAAGSKDQRISVWSIYSES", "soluble on expression in E. coli": "soluble"},
      {"sequence": "RAIPIKQSFLLKRSGNSLNKEWKKKYVTLSSNGFLLYHPSINDYIHSTHGKEMDLLRTTVKVPGKRPPRAISAFGPSASGSAGQAEEENFEFLIVSSTGQTWHFEAASFEERDAWVQAIESQILASLQ", "soluble on expression in E. coli": "soluble"}
    ]}
  ]
}
